# Experimental data taken from publication PMC9748336.
# Target: HA-tagged PP2A catalytic Cα subunit p.Cys196Arg variant (human) (UniProt P67775)
# Test: co-IP; HA pull-down: lysates of HEK293T cells transfected with HA-Cα incubated 1 h at 4°C with anti-HA-agarose beads in NENT100 buffer with 1 mg/ml BSA; washes with 300 and 150 mM NaCl; endogenous A subunit detected by anti-A immunoblot, quantified against the anti-HA signal, WT set at 100%
substance,measurement,value
endogenous PP2A A subunit (from UniProt P30153 1-589) (natural protein),percent decrease of binding against Cα WT,40%
